Experimental findings from patent publication US20240052047A1 (Pfizer, published 2024) are described below.

Broadly, the Kd is a measure of binding affinity in units of concentration. By koff is commonly meant the rate constant with which the complex falls apart. Broadly, the kon is a measure of how fast the partners come together.

Assay [1] has as its target T1, human IL27 receptor (IL27RA/gp130 heterodimer) on human cells (human, UniProt Q6UWB1 33-636; P40189 23-918). Kind of assay: cell-based or functional assay.
Assay [2] concerns the target T1, human IL27 receptor (IL27RA/gp130 …). Kind of assay: cell-based or functional assay. The source holds these as a separate data set.
Assay [3] has the same target. Kind of assay: cell-based or functional assay. The source holds these as a separate data set.
Another assay concerns the target T2, Human gp130 (human, UniProt P40189 23-619).
T2 construct: Soluble analyte in SPR and antigen in ELISA/screens; also called huGP130
T2 sequence: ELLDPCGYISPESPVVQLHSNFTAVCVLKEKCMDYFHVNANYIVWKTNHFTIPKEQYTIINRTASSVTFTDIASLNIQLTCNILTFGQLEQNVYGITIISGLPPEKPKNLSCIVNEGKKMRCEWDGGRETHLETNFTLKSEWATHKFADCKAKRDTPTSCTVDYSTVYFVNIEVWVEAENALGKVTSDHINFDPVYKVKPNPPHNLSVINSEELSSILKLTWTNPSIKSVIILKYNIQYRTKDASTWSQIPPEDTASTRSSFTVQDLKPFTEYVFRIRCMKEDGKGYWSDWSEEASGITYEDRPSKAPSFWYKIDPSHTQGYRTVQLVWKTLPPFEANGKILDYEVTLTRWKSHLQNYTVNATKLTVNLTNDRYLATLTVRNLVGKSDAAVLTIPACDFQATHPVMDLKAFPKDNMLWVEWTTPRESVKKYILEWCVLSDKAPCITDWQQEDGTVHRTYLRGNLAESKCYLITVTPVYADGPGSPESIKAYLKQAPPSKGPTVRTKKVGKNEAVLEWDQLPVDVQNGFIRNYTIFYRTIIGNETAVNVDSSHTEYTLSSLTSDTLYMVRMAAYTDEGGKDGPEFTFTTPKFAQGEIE
As to the kind of experiment: SPR Biacore 8K+, 37 C; mAb-4894 captured by anti-Fab, antigen as analyte; 1:1 Langmuir fit. As to the method:
(§1) The crossreactivity of mAb-4894 to human and cynomolgus monkey antigens, gp130 (human—SEQ ID NO: 45, cynomolgus—SEQ ID No: 46) and IL27RA (human—SEQ ID NO: 41, cynomolgus—SEQ ID No: 42), was measured by surface plasmon resonance by anti-FAB capture of mAb-4894 (containing arms of anti-IL27RA-4880 EE and anti-gp130-4875 RR) on a biacore chip. Human or cynomolgus monkey IL27RA or gp130 was flowed over the chip and on and off rates were determined, and the affinity constants calculated.
(§2) Flow cell 1 for each channel was used as a reference flow cell. After antibody capture, three-fold dilution series of cytokines with concentrations ranging from 405 nM to 15 nM for huGP130 and cyGP130 and 45 nM to 1.67 nM for huIL27R and cyIL27R or HBS-EP+ buffer were injected over the sensor surface for 60 seconds at 50 μl/minute. The dissociation was monitored for 600 seconds and the surface was regenerated with 2 injections of 10 mM Glycine pH 1.7 at 30 μl/minute. The data was double referenced (Myszka, D., J. Mol. Recognit 1999; 279-284). Binding affinities and rate constants were determined for human and cyno GP130 and IL27R by fitting the resulting sensorgram data to a 1:1 Langmuir model in BIAcore Insight Evaluation software version 3.0.12.15655 (Cytiva).
(In general: Surface plasmon resonance follows binding to a sensor surface in real time, without labels.)

Another assay addresses T3, Cynomolgus monkey gp130 (cynomolgus monkey, UniProt P40189 23-619 (human entry), limits assumed).
T3 construct: Soluble SPR analyte; also called Cyno GP130; cyGP130
T3 chain: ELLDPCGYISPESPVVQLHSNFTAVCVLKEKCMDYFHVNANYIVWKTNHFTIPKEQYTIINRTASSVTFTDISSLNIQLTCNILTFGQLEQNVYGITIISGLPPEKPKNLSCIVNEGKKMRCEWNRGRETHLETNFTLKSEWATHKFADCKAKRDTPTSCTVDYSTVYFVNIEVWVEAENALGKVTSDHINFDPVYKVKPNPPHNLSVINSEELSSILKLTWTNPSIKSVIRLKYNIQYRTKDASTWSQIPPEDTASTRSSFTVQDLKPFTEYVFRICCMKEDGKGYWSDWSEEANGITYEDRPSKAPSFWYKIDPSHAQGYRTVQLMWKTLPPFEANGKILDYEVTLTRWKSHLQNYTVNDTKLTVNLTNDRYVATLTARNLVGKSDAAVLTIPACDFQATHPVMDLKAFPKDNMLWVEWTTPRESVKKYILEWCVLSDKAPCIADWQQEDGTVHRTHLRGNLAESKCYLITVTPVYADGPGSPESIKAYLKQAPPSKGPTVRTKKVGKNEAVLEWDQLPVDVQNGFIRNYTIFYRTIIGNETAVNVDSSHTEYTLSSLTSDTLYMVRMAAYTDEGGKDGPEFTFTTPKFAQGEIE
The description is as above. As to the method:
as §1, §2

Another assay concerns the target T4, Human IL27RA (human, UniProt Q6UWB1 33-516).
T4 construct: Soluble analyte in SPR and antigen in ELISA/screens; also called huIL27R
T4 sequence: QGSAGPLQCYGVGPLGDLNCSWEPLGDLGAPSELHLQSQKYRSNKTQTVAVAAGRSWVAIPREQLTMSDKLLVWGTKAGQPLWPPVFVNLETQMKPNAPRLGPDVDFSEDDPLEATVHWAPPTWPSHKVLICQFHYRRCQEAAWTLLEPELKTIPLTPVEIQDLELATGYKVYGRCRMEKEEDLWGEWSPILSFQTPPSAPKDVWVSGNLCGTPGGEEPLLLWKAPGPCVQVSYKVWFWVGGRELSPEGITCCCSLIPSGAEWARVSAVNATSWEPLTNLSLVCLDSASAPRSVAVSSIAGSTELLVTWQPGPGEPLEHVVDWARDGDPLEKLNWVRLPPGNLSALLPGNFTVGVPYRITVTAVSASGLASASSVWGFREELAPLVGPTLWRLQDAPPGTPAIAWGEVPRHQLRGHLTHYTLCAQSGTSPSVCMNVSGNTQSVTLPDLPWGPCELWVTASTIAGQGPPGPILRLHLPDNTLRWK
Described as above. As to the method:
as §1, §2

B1: mAb-4894 anti-IL27RA/gp130 bispecific antibody (bispecific antibody, human IgG1)
heavy 1: EVQLVESGGGLVQPGGSLRLSCAASGFTFEYFGLQWVRQAPGKGLEWIGYTSSGGNYEYYEETLKGRFTISRDNAKNSLYLQMNSLRAEDTAVYYCARTKTGDYWGQGTLVTVSSASTKGPSVFPLAPSSKSTSGGTAALGCLVKDYFPEPVTVSWNSGALTSGVHTFPAVLQSSGLYSLSSVVTVPSSSLGTQTYICNVNHKPSNTKVDKKVEPKSCEKTHTCPPCPAPEAAGAPSVFLFPPKPKDTLMISRTPEVTCVVVDVSHEDPEVKFNWYVDGVEVHNAKTKPREEQYNSTYRVVSVLTVLHQDWLNGKEYKCKVSNKALPAPIEKTISKAKGQPREPQVYTLPPSREEMTKNQVSLTCEVKGFYPSDIAVEWESNGQPENNYKTTPPVLDSDGSFFLYSKLTVDKSRWQQGNVFSCSVMHEALHNHYTQKSLSLSPGK
light 1: DIQMTQSPSSLSASVGDRVTITCRASQDIGNSLTWYQQKPGKAPKRVIFGATGLAAGVPSRFSGSGSGTDFTLTISSLQPEDFATYYCLQSKQYPYTFGQGTKLEIKRTVAAPSVFIFPPSDEQLKSGTASVVCLLNNFYPREAKVQWKVDNALQSGNSQESVTEQDSKDSTYSLSSTLTLSKADYEKHKVYACEVTHQGLSSPVTKSFNRGEC
heavy 2: QVQLVQSGAEVKKPGSSVKVSCKVSGGSISSYYWSWVRQAPGQGLEWIGRIYITGNTNYNPSLKDRVTMTVDTSTSTHYMELSSLRSEDTAVYYCAREGPKLGIFDYWGQGTLVTVSSASTKGPSVFPLAPSSKSTSGGTAALGCLVKDYFPEPVTVSWNSGALTSGVHTFPAVLQSSGLYSLSSVVTVPSSSLGTQTYICNVNHKPSNTKVDKKVEPKSCRKTHTCPPCPAPEAAGAPSVFLFPPKPKDTLMISRTPEVTCVVVDVSHEDPEVKFNWYVDGVEVHNAKTKPREEQYNSTYRVVSVLTVLHQDWLNGKEYKCKVSNKALPAPIEKTISKAKGQPREPQVYTLPPSREEMTKNQVSLTCLVKGFYPSDIAVEWESNGQPENNYKTTPPVLDSDGSFFLYSRLTVDKSRWQQGNVFSCSVMHEALHNHYTQKSLSLSPGK
light 2: DIQMTQSPSSLSASVGDRVTITCRASQSVSSSYLAWYQQKPGKAPKLLIYGTESRATGVPSRFSGSGSGTDFTLTISSLQPEDFATYYCQQYGGYPTFGGGTKVEIKRTVAAPSVFIFPPSDEQLKSGTASVVCLLNNFYPREAKVQWKVDNALQSGNSQESVTEQDSKDSTYSLSSTLTLSKADYEKHKVYACEVTHQGLSSPVTKSFNRGEC
notes: Human IgG1 EE/RR heterodimer with L234A, L235A, G237A (EU); also called GBT-IL27R-4894; GBT-IL-27R-4894
For the molecule B1, in assay [1], the “IDO1 mRNA expression in primary cultured human colonocytes, average EC50” value came to 20 nM; the “pSTAT1 in CD3+ T cells from human whole blood, average EC50” value stood at 0.43 nM; the “pSTAT3 in CD3+ T cells from human whole blood, average EC50” value came to 0.23 nM. Moreover, the “Th17 Cells IL-17A IC50 (MSD immunoassay of supernatant)” value in assay [2] stood at 0.0055 nM. In assay [3], the “IDO1 in CD14+ monocytes EC50” value is 0.008 nM, the “PD-L1 in CD14+ monocytes EC50 (human whole blood)” value was determined as 0.002 nM and the “pSTAT1 in CD3+ T cells EC50 (human whole blood)” value turned out to be 83 pM. In the assay with Human gp130, the affinity, expressed as Kd, was 170 nM; the off-rate constant (koff) came out at 0.0566 s⁻¹; the kon was determined as 337000 M⁻¹ s⁻¹. Besides, in the assay with Cynomolgus monkey gp130, binding was put at a Kd of 188 nM, the off-rate constant (koff) amounted to 0.0403 s⁻¹ and the kon is 215000 M⁻¹ s⁻¹. In the assay with Human IL27RA, binding was characterised by a dissociation constant (Kd) of 0.11 nM, the koff was determined as 0.00011 s⁻¹ and the kon was 998000 M⁻¹ s⁻¹.
